Measurements taken from US20210238282A1 (AMPSOURCE BIOPHARMA SHANGHAI, published 2021).

T1: human TIM-1 (Sino Biological Inc., catalog No. 11051-H08H1) (human, UniProt Q96D42 21-290)
T1 construct: Bought protein
T1 sequence (looked up): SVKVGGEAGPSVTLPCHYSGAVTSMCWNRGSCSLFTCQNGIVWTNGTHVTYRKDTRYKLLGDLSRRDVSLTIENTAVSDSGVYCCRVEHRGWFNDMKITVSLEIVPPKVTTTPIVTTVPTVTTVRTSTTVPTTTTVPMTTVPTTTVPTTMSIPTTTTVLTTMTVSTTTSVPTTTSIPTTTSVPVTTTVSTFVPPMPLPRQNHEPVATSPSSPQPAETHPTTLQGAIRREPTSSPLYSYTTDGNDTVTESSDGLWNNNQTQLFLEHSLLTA

T2: human TIM-4 (Sino Biological Inc., catalog No. 12161-H08H) (human, UniProt Q96H15 25-315)
T2 construct: Bought protein
T2 sequence (looked up): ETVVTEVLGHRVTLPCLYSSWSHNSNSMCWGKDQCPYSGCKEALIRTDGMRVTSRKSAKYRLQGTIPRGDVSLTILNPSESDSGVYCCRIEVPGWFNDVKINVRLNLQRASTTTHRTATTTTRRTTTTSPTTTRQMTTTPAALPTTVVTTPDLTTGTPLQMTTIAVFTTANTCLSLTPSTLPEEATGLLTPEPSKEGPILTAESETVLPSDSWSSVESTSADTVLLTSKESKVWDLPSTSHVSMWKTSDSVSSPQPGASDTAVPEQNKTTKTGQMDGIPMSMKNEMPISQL


Experiments:
[1] = molecular target: T3, human TIM-3 antigen (His-tagged TIM-3 extracellular domain expressed by Ampsource Biopharma Shanghai Inc.) (human, UniProt Q8TDQ0 22-202); test: BLI (ForteBio Octet) as stated; antibody captured by anti-human IgG Fc, antigen in solution, 1:1 model
T3 construct: extracellular domain; also called TIM-3-His; not shown: His tag

[2] = molecular target: T3, human TIM-3 antigen (His-tagged TIM-3 …); test: ELISA, plate coated with His-tagged human TIM-3 ECD, goat anti-mouse IgG-HRP
[3] = molecular target: T3, human TIM-3 antigen (His-tagged TIM-3 …); test: BLI (ForteBio Octet) as stated; antigen in solution, 1:1 model; capture of the murine antibody not described
[4] = molecular target: TIM-3 (His-tagged, used in the TIM-3/PtdSer competitive ELISA) (UniProt Q8TDQ0 22-200, limits assumed); test: competitive ELISA, plate coated with PtdSer (phosphatidylserine, not a protein), His-tagged TIM-3 in solution with antibody, anti-6xHis-HRP
[5] = molecular target: T3, human TIM-3 antigen (His-tagged TIM-3 …); test: direct ELISA with HRP-labeled AB12S3, plate coated with human TIM-3 at 1 ug/mL
[6] = molecular target: T4, mouse TIM-3 protein (Sino Biological Inc., catalog No. 51152-M08H) (mouse, UniProt Q8VIM0 20-191); test: direct ELISA with HRP-labeled AB12S3, plate coated with mouse TIM-3 at 1 ug/mL
T4 construct: Bought protein; also called murine TIM-3

[7] = molecular target: T1, human TIM-1 (Sino Biological Inc., …); test: ELISA, plate coated with human TIM-1 at 1 ug/mL, detection with HRP-labeled goat anti-human IgG
[8] = molecular target: T5, TIM3-Euk (TIM-3 reagent of the TIM-3/Gal9 binding assay kit) (UniProt Q8TDQ0 22-200, limits assumed, europium cryptate label (Euk), position not stated); test: HTRF competition, blocking of TIM-3/Galectin-9 binding (competitor: Tag-Gal9)
T5 construct: Kit reagent

[9] = molecular target: monkey TIM-3 (Sino Biological Inc., catalog No. 90312-C02H) (monkey); test: direct ELISA with HRP-labeled AB12S3, plate coated with monkey TIM-3 at 1 ug/mL
[10] = molecular target: T2, human TIM-4 (Sino Biological Inc., …); test: ELISA, plate coated with human TIM-4 at 1 ug/mL, detection with HRP-labeled goat anti-human IgG
[11] = molecular target: T3, human TIM-3 antigen (His-tagged TIM-3 …); test: ELISA, plate coated with His-tagged human TIM-3 extracellular domain

Row | Binder | Kd [1] [pM] | koff [1] [s⁻¹] | kon [1] [M⁻¹ s⁻¹] | EC50 (read off the curve) [11] [µg/mL] | other results
1 | humanized anti-TIM-3 antibody AB12S6 (antibody, V domains shown) VH: QVQLQLSGAEVKKPGASVKVSCKASGYTFTNYVMHWVRQAPGQRLEWMGWIDPDNDGIKYSQKFQGRVTLTSDKSASTAYMELSSLRSEDTAVYYCARDFGYVDWFPYWGQGTLVTVSS VL: DIQMTQSPSSMSASVGDRVTITCQASQDVTTALNWYQQKPGKSPKLLIYSASNLETGVPSRFSGSGSGTDFTFTISSLQPEDIATYYCQQHYSIPPTFGGGTNLEIK | 4.38 | 8.68e-07 | 198000 |  | 
2 | murine monoclonal antibody Mab22 (antibody, mouse IgG1, V domains shown, subtype identified as murine IgG1 (Kappa); purified from hybridoma supernatant on protein G; also called antibody secreted by hybridoma clone #22; murine antibody Mab22) VH: EVQLQLSGPELVKPGASVKMSCKASGYTFTNYVMHWMRQKPGQGLEWIGYIDPDNDGIKYNEKIKGKATLTSDKSSSTAYMELSSLTSEDSAVYYCARDFGYVDWFPYWGQGTLVTVSA VL: DIVMTQSHKFMSTSVGNRVSITCKASQDVTTAVAWYQQKSGQSPKLLIYSASNRYIGVPDRFTGSGSGTDFTFTISSVQTEDLAVYYCQQHYSIPPTFGGGTNLEIK |  |  |  |  | EC50 [2]: 0.0063 µg/mL; Kd [3]: < 1 pM; koff [3]: < 1e-07 s⁻¹; kon [3]: 345000 M⁻¹ s⁻¹
3 | humanized anti-TIM-3 antibody AB12S3 (antibody, human IgG4 S228P, kappa, V domains shown, Human IgG4 S228P (EU) heavy chain and human kappa light chain) VH: EVQLVQSGAEVKKPGASVKVSCKASGYTFTNYVMHWMRQAPGQRLEWIGYIDPDNDGIKYNEKIKGKATLTSDKSSSTAYMELSSLRSEDTAVYYCARDFGYVDWFPYWGQGTTVTVSS VL: DIVMTQSPSSLSASVGDRVTITCKASQDVTTAVAWYQQKPGKAPKLLIYSASNRYIGVPDRFTGSGSGTDFTFTISSLQPEDIATYYCQQHYSIPPTFGGGTKVEIKR | 2.71 |  |  | ~0.004 | IC50 [4]: 1.33 µg/mL; EC50 (read off the curve) [5]: ~0.008 µg/mL; binding result [6]: no binding (tested: 10000 ng/mL); binding result [7]: no binding (tested: 10000 ng/mL); IC50 [8]: 0.202 µg/mL; EC50 (read off the curve) [9]: 0.05 µg/mL; binding result [10]: no binding (tested: 10000 ng/mL)
4 | control antibody AB12S1 (antibody, human IgG1, kappa, N297A, V domains shown, Variable regions derived from anti-TIM-3 antibody ABTIM3 of U.S. Pat. No. 9,605,070; also called positive control antibody AB12S1) VH: QVQLQQPGAELVKPGASVKMSCKASGYTFTSYNMHWIKQTPGQGLEWIGDIYPGNGDTSYNQKFKGKATLTADKSSSTVYMQLSSLTSEDSAVYYCARVGGAFPMDYWGQGTSVTVSS VL: DIVLTQSPASLAVSLGQRATISCRASESVEYYGTSLMQWYQQKPGQPPKLLIYAASNVESGVPARFSGSGSGTDFSLNIHPVEEDDIAIYFCQQSRKDPSTFGGGTKLEIKR |  |  |  | ~0.003 | IC50 [4]: 3.2 µg/mL; IC50 [8]: 0.259 µg/mL

The next lines start with results.

Row | Kd [1] [pM] | koff [1] [s⁻¹] | kon [1] [M⁻¹ s⁻¹] | EC50 (read off the curve) [11] [µg/mL] | Binder | other results
5 | 4.82 | 6.32e-07 | 131000 |  | humanized anti-TIM-3 antibody AB12S5 (antibody, V domains shown, it was captured through anti-human IgG Fc) VH: QVQLVQSGAEVKKPGASVKVSCKASGYTFTNYVMHWVRQAPGQRLEWMGWIDPDNDGIKYSQKFQGRVTITRDTSASTAYMELSSLRSEDTAVYYCARDFGYVDWFPYWGQGTTVTVSS VL: DIQMTQSPSSLSASVGDRVTITCQASQDVTTALNWYQQKPGKAPKLLIYSASNLETGVPSRFSGSGSGTDFTFTISSLQPEDIATYYCQQHYSIPPTFGGGTKVEIK | 
6 | 3.44 | 7.66e-07 | 223000 |  | humanized anti-TIM-3 antibody AB12S7 (antibody, V domains shown) VH: EVQLQLSGAEVKKPGASVKVSCKASGYTFTNYVMHWMRQKPGQRLEWMGWIDPDNDGIKYSQKFQGRVTITRDKSSSTAYMELSSLRSEDTAVYYCARDFGYVDWFPYWGQGTLVTVSS VL: DIVMTQSPSSLSASVGDRVTITCQASQDVTTALNWYQQKSGQSPKLLIYSASNLETGVPSRFSGSGSGTDFTFTISSLQPEDIATYYCQQHYSIPPTFGGGTNLEIK | 
7 | < 1 | < 1e-07 | 254000 | ~0.004 | humanized anti-TIM-3 antibody AB12S4 (antibody, human IgG4 S228P, kappa, V domains shown, Human IgG4 S228P (EU) heavy chain and human kappa light chain) VH: EVQLVLSGAEVVKPGASVKMSCKASGYTFTNYVMHWMRQKPGQRLEWIGYIDPDNDGIKYNEKIKGKATLTSDKSSSTAYMELSSLRSEDSAVYYCARDFGYVDWFPYWGQGTTVTVSS VL: DIVMTQSPSSMSTSVGDRVTITCKASQDVTTAVAWYQQKPGKSPKLLIYSASNRYIGVPDRFTGSGSGTDFTFTISSVQPEDIAVYYCQQHYSIPPTFGGGTNLEIKR | 
